The assay addresses T1, MT1-MMP sandwich EIA (solid-phase antibody 222-2D12, labeled antibody 222-1D8) (Homo sapiens, UniProt P50281).
T1 construct: 488 amino acid residues of Δ MT1-MMP (G^48 to G^53) which lacks the signal peptide and part of the propeptide region; made in house; host or cells: E. coli
The experiment in a line: Specificity test: cross reactivity on MT1-MMP sandwich EIA. The class given is binding. As to conditions: concentration 1 μg/mL; blank 0.027. The procedure: Monoclonal antibodies (e.g., 333-2D12 (IgG)) were dissolved in 0.1 M phosphate buffer, pH 7.0 to a concentration of 25 μg/mL. The monoclonal antibody solution was added to each well of a 96-well microwell (Maxisorp; Nunc-Immuno Module) at 100 μL per well and allowed to stand at 4° C. for 24 hrs. […] The solid-phase antibodies were preserved at 4° C.
Standard antigens or samples to be assayed were dispensed into a 96-well vinyl plate at 25 μL each. To each well was added a dilution buffer in aliquots of 100 μL, followed by mixing. An aliquot (100 μL) of the resultant mixture was taken out, dispensed into an antibody-solid phased plate from which a blocking solution was removed by washing. The plate was then allowed to stand at 4° C. for 16 hours.
[…] antibody 222-1D8 (Fab′-HRP) was diluted with a blocking solution to a concentration of 0.4 μg/mL. The reaction solution was removed from the antibody-solid phased plate where the primary reaction was completed. The plate was washed with a washing liquid three times and an aliquot (100 μL) of the labeled antibody solution was added to each well. The plate was allowed to stand at room temperature for 1 hour.
After completion of the reaction, the labeled antibody solution was removed. The plate was then washed with a washing liquid three times, and a TMB solution (CALBIOCHEM) was added to each well at 100 μL. The mixture was allowed to react at room temperature for 20 minute. The reaction was stopped with the addition of 2 N sulfuric acid at 100 μL per well. The reaction mixture was measured for A450 with a microplate reader (MPR-A4; Tosoh).
Each of MMP-1, -2, -3, -4, -7, -8, -9, -13, -19 and -20 was prepared to give a concentration of 1 μg/mL, and subjected to MT1-MMP sandwich EIA. A450 was measured. When MT1-MMP was subjected to sandwich EIA at 0.16 μg/mL, the absorbance was 2.206. However, when the above MMPs were subjected, their absorbances were only an extent of 0.024 to 0.071. Accordingly, it has been verified that MT1-MMP sandwich EIA is specifically reactive with MT1-MMP.

A450 data for five molecules are collected here from patent US20040096899A1, “Immunoassay method for membrane-bound matrix metalloprotease” (priority 2000, published 2004).

B1: MMP-1: matrix metalloproteinase subjected to MT1-MMP sandwich EIA for cross reactivity (protein)
chain: FPATLETQEQDVDLVQKYLEKYYNLKNDGRQVEKRRNSGPVVEKLKQMQEFFGLKVTGKPDAETLKVMKQPRCGVPDVAQFVLTEGNPRWEQTHLTYRIENYTPDLPRADVDHAIEKAFQLWSNVTPLTFTKVSEGQADIMISFVRGDHRDNSPFDGPGGNLAHAFQPGPGIGGDAHFDEDERWTNNFREYNLHRVAAHELGHSLGLSHSTDIGALMYPSYTFSGDVQLAQDDIDGIQAIYGRSQNPVQPIGPQTPKACDSKLTFDAITTIRGEVMFFKDRFYMRTNPFYPEVELNFISVFWPQLPNGLEAAYEFADRDEVRFFKGNKYWAVQGQNVLHGYPKDIYSSFGFPRTVKHIDAALSEENTGKTYFFVANKYWRYDEYKRSMDPGYPKMIAHDFPGIGHKVDAVFMKDGFFYFFHGTRQYKFDPKTKRILTLQKANSWFNCRKN
In turn, B1 displayed an A450 of 0.025.

B2: MMP-19: matrix metalloproteinase subjected to MT1-MMP sandwich EIA for cross reactivity (protein)
chain: RVLGLAEVAPVDYLSQYGYLQKPLEGSNNFKPEDITEALRAFQEASELPVSGQLDDATRARMRQPRCGLEDPFNQKTLKYLLLGRWRKKHLTFRILNLPSTLPPHTARAALRQAFQDWSNVAPLTFQEVQAGAADIRLSFHGRQSSYCSNTFDGPGRVLAHADIPELGSVHFDEDEFWTEGTYRGVNLRIIAAHEVGHALGLGHSRYSQALMAPVYEGYRPHFKLHPDDVAGIQALYGKKSPVIRDEEEEETELPTVPPVPTEPSPMPDPCSSELDAMMLGPRGKTYAFKGDYVWTVSDSGPGPLFRVSALWEGLPGNLDAAVYSPRTQWIHFFKGDKVWRYINFKMSPGFPKKLNRVEPNLDAALYWPLNQKVFLFKGSGYWQWDELARTDFSSYPKPIKGLFTGVPNQPSAAMSWQDGRVYFFKGKVYWRLNQQLRVEKGYPRNISHNWMHCRPRTIDTTPSGGNTTPSGTGITLDTTLSATETTFEY
As for B2, the A450 was 0.027.

B3: MMP-20: matrix metalloproteinase subjected to MT1-MMP sandwich EIA for cross reactivity (protein)
chain: APSLVAASPRTWRNNYRLAQAYLDKYYTNKEGHQIGEMVARGSNSMIRKIKELQAFFGLQVTGKLDQTTMNVIKKPRCGVPDVANYRLFPGEPKWKKNTLTYRISKYTPSMSSVEVDKAVEMALQAWSSAVPLSFVRINSGEADIMISFENGDHGDSYPFDGPRGTLAHAFAPGEGLGGDTHFDNAEKWTMGTNGFNLFTVAAHEFGHALGLAHSTDPSALMYPTYKYKNPYGFHLPKDDVKGIQALYGPRKVFLGKPTLPHAPHHKPSIPDLCDSSSSFDAVTMLGKELLLFKDRIFWRRQVHLRTGIRPSTITSSFPQLMSNVDAAYEVAERGTAYFFKGPHYWITRGFQMQGPPRTIYDFGFPRHVQQIDAAVYLREPQKTLFFVGDEYYSYDERKRKMEKDYPKNTEEEFSGVNGQIDAAVELNGYIYFFSGPKTYKYDTEKEDVVSVVKSSSWIGC
In turn, B3 returned an A450 of 0.071.

B4: MMP-2: matrix metalloproteinase subjected to MT1-MMP sandwich EIA for cross reactivity (protein)
chain: APSPIIKFPGDVAPKTDKELAVQYLNTFYGCPKESCNLFVLKDTLKKMQKFFGLPQTGDLDQNTIETMRKPRCGNPDVANYNFFPRKPKWDKNQITYRIIGYTPDLDPETVDDAFARAFQVWSDVTPLRFSRIHDGEADIMINFGRWEHGDGYPFDGKDGLLAHAFAPGTGVGGDSHFDDDELWTLGEGQVVRVKYGNADGEYCKFPFLFNGKEYNSCTDTGRSDGFLWCSTTYNFEKDGKYGFCPHEALFTMGGNAEGQPCKFPFRFQGTSYDSCTTEGRTDGYRWCGTTEDYDRDKKYGFCPETAMSTVGGNSEGAPCVFPFTFLGNKYESCTSAGRSDGKMWCATTANYDDDRKWGFCPDQGYSLFLVAAHEFGHAMGLEHSQDPGALMAPIYTYTKNFRLSQDDIKGIQELYGASPDIDLGTGPTPTLGPVTPEICKQDIVFDGIAQIRGEIFFFKDRFIWRTVTPRDKPMGPLLVATFWPELPEKIDAVYEAPQEEKAVFFAGNEYWIYSASTLERGYPKPLTSLGLPPDVQRVDAAFNWSKNKKTYIFAGDKFWRYNEVKKKMDPGFPKLIADAWNAIPDNLDAVVDLQGGGHSYFFKGAYYLKLENQSLKSVKFGSIKSDWLGC
Molecule B4 displayed an A450 of 0.024.

B5: MMP-9: matrix metalloproteinase subjected to MT1-MMP sandwich EIA for cross reactivity (protein)
chain: APRQRQSTLVLFPGDLRTNLTDRQLAEEYLYRYGYTRVAEMRGESKSLGPALLLLQKQLSLPETGELDSATLKAMRTPRCGVPDLGRFQTFEGDLKWHHHNITYWIQNYSEDLPRAVIDDAFARAFALWSAVTPLTFTRVYSRDADIVIQFGVAEHGDGYPFDGKDGLLAHAFPPGPGIQGDAHFDDDELWSLGKGVVVPTRFGNADGAACHFPFIFEGRSYSACTTDGRSDGLPWCSTTANYDTDDRFGFCPSERLYTQDGNADGKPCQFPFIFQGQSYSACTTDGRSDGYRWCATTANYDRDKLFGFCPTRADSTVMGGNSAGELCVFPFTFLGKEYSTCTSEGRGDGRLWCATTSNFDSDKKWGFCPDQGYSLFLVAAHEFGHALGLDHSSVPEALMYPMYRFTEGPPLHKDDVNGIRHLYGPRPEPEPRPPTTTTPQPTAPPTVCPTGPPTVHPSERPTAGPTGPPSAGPTGPPTAGPSTATTVPLSPVDDACNVNIFDAIAEIGNQLYLFKDGKYWRFSEGRGSRPQGPFLIADKWPALPRKLDSVFEERLSKKLFFFSGRQVWVYTGASVLGPRRLDKLGLGADVAQVTGALRSGRGKMLLFSGRRLWRFDVKAQMVDPRSASEVDRMFPGVPLDTHDVFQYREKAYFCQDRFYWRVSSRSELNQVDQVGYVTYDILQCPED
On to B5, for which the A450 is 0.039.
